Results from patent US20220177599A1.

B1: F292A CAR (ICAM-1 CAR with the LFA-1 αL I domain carrying the F292A mutation, 4-1BB-CD3ζ) (receptor, part only; not given: hinge, transmembrane, signalling domains, tag, not shown: large carriers)
chain, part: VDLVFLFDGSMSLQPDEFQKILDFMKDVMKKLSNTSYQFAAVQFSTSYKTEFDFSDYVKWKDPDALLKHVKHMLLLTNTFGAINYVATEVFREELGARPDATKVLIIITDGEATDSGNIDAAKDIIRYIIGIGKHFQTKESQETLHKFASKPASEFVKILDTAEKLKDLFTELQKKIYVIE

How the values were obtained:
[1] = target: Recombinant human EpCAM monomer protein (R&D systems, cat. no. 9277-EP), conjugated with Alexa Fluor 647 (human) (UniProt P16422); test: saturation binding by flow cytometry: CAR-expressing Jurkat T cells stained with serially diluted Alexa Fluor 647-conjugated EpCAM, one-site nonlinear regression of MFI
[2] = target: Recombinant human EpCAM monomer protein (R&D systems, cat. no. 9277-EP), conjugated with Alexa Fluor 647 (human) (UniProt P16422); test: flow cytometry saturation binding: CAR-expressing Jurkat T cells stained with serially diluted AF647-conjugated EpCAM, MFI fitted with the one-site nonlinear regression model
[3] = target: Recombinant human EpCAM monomer protein (R&D systems, cat. no. 9277-EP), conjugated with Alexa Fluor 647 (human) (UniProt P16422); test: saturation binding by flow cytometry on CAR-expressing Jurkat T cells with Alexa Fluor 647-conjugated EpCAM; reference is C215 CAR
[4] = target: EpCAM on tumor cells (SK-BR3, Capan-2, HT-29, SNU-638, MKN-45, MDA-MB-231, SW-1990) (human) (UniProt P16422); test: cell-based or functional assay
[5] = target: Intercellular adhesion molecule-1 (ICAM-1) on tumor cells (SNU-638, MKN-45) (human) (UniProt P05362); test: cell-based or functional assay
UniProt P05362, sequence (P05362 28-532): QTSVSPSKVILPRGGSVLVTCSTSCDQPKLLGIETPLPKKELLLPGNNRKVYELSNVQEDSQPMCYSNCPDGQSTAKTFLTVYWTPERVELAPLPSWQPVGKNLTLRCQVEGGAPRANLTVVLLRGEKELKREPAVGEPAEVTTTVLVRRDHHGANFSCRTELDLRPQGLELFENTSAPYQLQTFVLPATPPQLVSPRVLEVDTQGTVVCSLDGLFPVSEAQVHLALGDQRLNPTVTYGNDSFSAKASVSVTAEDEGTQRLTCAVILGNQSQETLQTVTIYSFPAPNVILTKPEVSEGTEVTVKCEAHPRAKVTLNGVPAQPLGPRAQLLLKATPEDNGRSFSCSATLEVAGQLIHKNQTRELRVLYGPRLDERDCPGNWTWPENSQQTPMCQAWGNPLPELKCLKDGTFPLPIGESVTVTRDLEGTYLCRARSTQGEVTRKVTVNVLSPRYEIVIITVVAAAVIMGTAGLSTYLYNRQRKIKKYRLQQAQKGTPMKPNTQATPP

| Molecule | Kd [1] [nM] | Kd [2] [nM] | fold difference of KD against C215 CAR [3] [fold] | lysis of SNU-638 and MKN-45 wild-type cells at 48 hours (bioluminescence-based cytotoxicity assay, E:T 1:1) [4] [%] | killing of MKN-45 cells at 48 hours (bioluminescence-based cytotoxicity assay, E:T 1:1) [5] | specific lysis of SNU-638 cells at 48 hours (bioluminescence-based cytotoxicity assay, E:T 1:1) [5] [%] |
| --- | --- | --- | --- | --- | --- | --- |
| C215 CAR (anti-EpCAM chimeric antigen receptor with the scFv of mouse monoclonal antibody C215, CD28-CD3ζ 2nd generation backbone) | 4 | 3.95 |  |  |  |  |
| UBS54 CAR (anti-EpCAM chimeric antigen receptor with the scFv of monoclonal antibody UBS-54, CD28-CD3ζ 2nd generation backbone) | 250 | 253 | > 60 | 90 |  |  |
| B1 |  |  |  |  | 0 | 40 |
